Tests used:
[1] = molecular target: phenylalanyl-glycyl-phenylalanyl-glycine
[2] = molecular target: phenylalanyl-glycyl-phenylalanyl-hydroxylglycine

Enzyme activity n mole/h/ml medium; substrate PheGlyPheGly, product PheGlyPhe-hydroxyGly [1] [nmol/h/mL] | Enzyme activity n mole/h/ml medium; substrate PheGlyPhehydroxyGly, product PheGlyPhe-NH2 + glyoxylic acid [2] [nmol/h/mL] | Substance
2.8 | < 2 | enzyme expressed by plasmid SV-a (rat; signal sequence + N-terminal domain) (from UniProt P14925)
0.4 | 10.8 | enzyme expressed by plasmid SV-b (rat; signal sequence + C-terminal domain) (from UniProt P14925)
2.5 | 4.2 | enzymes expressed by plasmid SV-203 (rat; signal sequence + N-terminal domain + C-terminal domain) (from UniProt P14925)

From patent US6156555
